Measured values as given in the Immune Epitope Database (IEDB).

Experiments:
HLA-C*14:02 = assay: IEDB peptide-MHC binding, purified MHC/direct/fluorescence; filed as Kd, often an IC50 or EC50 that approximates it; ≥ and ≤ were set here for values at or beyond the usual limits of such assays
HLA-A*24:02 = assay: IEDB peptide-MHC binding, purified MHC/competitive/fluorescence; filed as Kd, often an IC50 or EC50 that approximates it; ≥ and ≤ were set here for values at or beyond the usual limits of such assays
HLA-A*02:01 [1] = assay: as above
HLA-A*02:03 = assay: as above
HLA-A*02:12 = assay: as above
HLA-A*02:19 = assay: as above
HLA-A*03:01 = assay: as above
HLA-A*23:01 = assay: as above
HLA-A*24:03 = assay: as above
HLA-A*26:01 = assay: as above
HLA-A*29:02 = assay: as above
HLA-B*15:01 [2] = assay: as above
HLA-B*18:01 [3] = assay: as above
HLA-B*27:03 = assay: as above
HLA-B*39:01 = assay: as above
HLA-B*46:01 [4] = assay: as above
HLA-B*51:01 [5] = assay: as above
HLA-B*57:01 [6] = assay: as above
HLA-A*02:11 = assay: as above; settings: source organism: Vibrio vulnificus
HLA-A*02:16 = assay: as above; settings: source organism: Vibrio vulnificus
HLA-A*68:02 = assay: as above; settings: source organism: Vibrio vulnificus
HLA-A*69:01 [7] = assay: as above; settings: source organism: Vibrio vulnificus
HLA-B*15:17 [8] = assay: as above; settings: source organism: Vibrio vulnificus
HLA-A*01:01 = assay: IEDB peptide-MHC binding, purified MHC/direct/fluorescence; filed as Kd, often an IC50 or EC50 that approximates it; ≥ and ≤ were set here for values at or beyond the usual limits of such assays; settings: source organism: Mycobacterium tuberculosis
HLA-A*02:01 [9] = assay: as above; settings: source organism: Mycobacterium tuberculosis
HLA-A*69:01 [10] = assay: as above; settings: source organism: Mycobacterium tuberculosis
HLA-B*08:01 = assay: as above; settings: source organism: Mycobacterium tuberculosis str. Haarlem
HLA-B*15:01 [11] = assay: as above; settings: source organism: Mycobacterium tuberculosis
HLA-B*15:17 [12] = assay: as above; settings: source organism: Mycobacterium tuberculosis
HLA-B*18:01 [13] = assay: as above; settings: source organism: Mycobacterium tuberculosis
HLA-B*27:05 = assay: as above; settings: source organism: Mycobacterium tuberculosis
HLA-B*40:01 = assay: as above; settings: source organism: Mycobacterium tuberculosis
HLA-B*46:01 [14] = assay: as above; settings: source organism: Mycobacterium tuberculosis
HLA-B*48:01 = assay: as above; settings: source organism: Mycobacterium tuberculosis
HLA-B*51:01 [15] = assay: as above; settings: source organism: Mycobacterium tuberculosis
HLA-B*57:01 [16] = assay: as above; settings: source organism: Mycobacterium tuberculosis
HLA-B*58:01 = assay: as above; settings: source organism: Mycobacterium tuberculosis
HLA-A*11:01 = assay: IEDB peptide-MHC binding, purified MHC/competitive/fluorescence; filed as Kd, often an IC50 or EC50 that approximates it; ≥ and ≤ were set here for values at or beyond the usual limits of such assays; settings: source organism: Mycobacterium leprae
HLA-A*31:01 = assay: as above; settings: source organism: Mycobacterium leprae
HLA-B*15:09 = assay: as above; settings: source organism: Mycobacterium leprae
HLA-B*53:01 = assay: IEDB peptide-MHC binding, purified MHC/competitive/fluorescence; ≥ and ≤ were set here for values at or beyond the usual limits of such assays; settings: source organism: Human herpesvirus 4 type 2
HLA-C*06:02 = assay: IEDB peptide-MHC binding, purified MHC/direct/fluorescence; filed as Kd, often an IC50 or EC50 that approximates it; ≥ and ≤ were set here for values at or beyond the usual limits of such assays; settings: source organism: Cryptosporidium parvum Iowa II
HLA-C*15:02 = assay: as above; settings: source organism: Cryptosporidium parvum Iowa II
[17] = source organism: Bacillus thuringiensis serovar tochigiensis BGSC 4Y1
[18] = source organism: Vibrio vulnificus YJ016
[19] = source organism: Vibrio vulnificus
[20] = source organism: Mycobacterium leprae
[21] = source organism: Cryptosporidium parvum Iowa II

Question: Which results are given for KYAKFFQNF?
Answer: Kd (HLA-C*14:02; [17]): 0.428 µM; Kd (HLA-A*24:02; [17]): ≤ 0.0001 µM

Question: How did the Kd (HLA-A*02:01 [1]; [18]) turn out when LTDEQKNAV was run?
Answer: ≥ 20 µM

Question: And the Kd (HLA-A*02:03; [18])?
Answer: ≥ 20 µM

Question: And the Kd (HLA-A*02:12; [18])?
Answer: 0.856 µM

Question: What about the Kd (HLA-A*02:19; [18]) of the same sequence?
Answer: ≥ 20 µM

Question: And the Kd (HLA-A*03:01; [18])?
Answer: ≥ 20 µM

Question: What about the Kd (HLA-A*23:01; [18]) of the same sequence?
Answer: ≥ 20 µM

Question: What about the Kd (HLA-A*24:03; [18]) of the same sequence?
Answer: ≥ 20 µM

Question: What about the Kd (HLA-A*26:01; [18]) of the same sequence?
Answer: ≥ 20 µM

Question: And the Kd (HLA-A*29:02; [18])?
Answer: ≥ 20 µM

Question: And the Kd (HLA-B*15:01 [2]; [18])?
Answer: ≥ 20 µM

Question: What about the Kd (HLA-B*18:01 [3]; [18]) of the same sequence?
Answer: ≥ 20 µM

Question: What about the Kd (HLA-B*27:03; [18]) of the same sequence?
Answer: ≥ 20 µM

Question: What about the Kd (HLA-B*39:01; [18]) of the same sequence?
Answer: ≥ 20 µM

Question: What about the Kd (HLA-B*46:01 [4]; [18]) of the same sequence?
Answer: ≥ 20 µM

Question: And the Kd (HLA-B*51:01 [5]; [18])?
Answer: ≥ 20 µM

Question: What about the Kd (HLA-B*57:01 [6]; [18]) of the same sequence?
Answer: ≥ 20 µM

Question: For SFYKNLIW, which Kd (HLA-A*24:02; source organism: Influenza A virus (A/swine/Korea/Hongsong2/2004(H1N2))) is on record?
Answer: 0.138 µM

Question: Which Kd (HLA-A*02:01 [1]; [19]) does the source give for DEWECTRDD here?
Answer: ≥ 20 µM

Question: And the Kd (HLA-A*02:03; [19])?
Answer: ≥ 20 µM

Question: And the Kd (HLA-A*02:11)?
Answer: ≥ 20 µM

Question: What about the Kd (HLA-A*02:12; [19]) of the same sequence?
Answer: ≥ 20 µM

Question: What about the Kd (HLA-A*02:16) of the same sequence?
Answer: ≥ 20 µM

Question: And the Kd (HLA-A*02:19; [19])?
Answer: ≥ 20 µM

Question: What about the Kd (HLA-A*03:01; [19]) of the same sequence?
Answer: ≥ 20 µM

Question: And the Kd (HLA-A*23:01; [19])?
Answer: ≥ 20 µM

Question: What about the Kd (HLA-A*24:03; [19]) of the same sequence?
Answer: ≥ 20 µM

Question: What about the Kd (HLA-A*26:01; [19]) of the same sequence?
Answer: ≥ 20 µM

Question: What about the Kd (HLA-A*29:02; [19]) of the same sequence?
Answer: ≥ 20 µM

Question: What about the Kd (HLA-A*68:02) of the same sequence?
Answer: ≥ 20 µM

Question: What about the Kd (HLA-A*69:01 [7]) of the same sequence?
Answer: ≥ 20 µM

Question: And the Kd (HLA-B*15:01 [2]; [19])?
Answer: ≥ 20 µM

Question: What about the Kd (HLA-B*15:17 [8]) of the same sequence?
Answer: ≥ 20 µM

Question: What about the Kd (HLA-B*18:01 [3]; [19]) of the same sequence?
Answer: 0.0594 µM

Question: And the Kd (HLA-B*27:03; [19])?
Answer: ≥ 20 µM

Question: What about the Kd (HLA-B*39:01; [19]) of the same sequence?
Answer: ≥ 20 µM

Question: And the Kd (HLA-B*46:01 [4]; [19])?
Answer: ≥ 20 µM

Question: And the Kd (HLA-B*51:01 [5]; [19])?
Answer: ≥ 20 µM

Question: What about the Kd (HLA-B*57:01 [6]; [19]) of the same sequence?
Answer: ≥ 20 µM

Question: Which results are given for YPACEAIGL?
Answer: Kd (HLA-A*01:01): ≥ 20 µM; Kd (HLA-A*02:01 [9]): ≥ 20 µM; Kd (HLA-A*69:01 [10]): 0.0905 µM; Kd (HLA-B*08:01): ≥ 20 µM; Kd (HLA-B*15:01 [11]): ≥ 20 µM; Kd (HLA-B*15:17 [12]): ≥ 20 µM; Kd (HLA-B*18:01 [13]): 0.166 µM; Kd (HLA-B*27:05): ≥ 20 µM; Kd (HLA-B*40:01): ≥ 20 µM; Kd (HLA-B*46:01 [14]): ≥ 20 µM; Kd (HLA-B*48:01): ≥ 20 µM; Kd (HLA-B*51:01 [15]): ≥ 20 µM; Kd (HLA-B*57:01 [16]): ≥ 20 µM; Kd (HLA-B*58:01): ≥ 20 µM; Kd (HLA-A*03:01; [20]): ≥ 20 µM; Kd (HLA-A*11:01): 0.854 µM; Kd (HLA-A*31:01): ≥ 20 µM; Kd (HLA-B*15:09): 0.526 µM; Kd (HLA-B*39:01; [20]): 0.031 µM

Question: IYAAISYMI was tested. Which Kd (HLA-A*24:02; source organism: Salmonella enterica subsp. enterica serovar Typhi) did it give?
Answer: ≤ 0.0001 µM

Question: How did the IC50 (HLA-B*53:01) turn out when TAYCPLQHW was run?
Answer: 0.0326 µM

Question: SFLHWFHHL was tested. Which Kd (HLA-C*06:02) did it give?
Answer: ≥ 20 µM

Question: What about the Kd (HLA-C*14:02; [21]) of the same sequence?
Answer: 0.111 µM

Question: What about the Kd (HLA-C*15:02) of the same sequence?
Answer: ≥ 20 µM

Question: And the Kd (HLA-A*23:01; [21])?
Answer: ≤ 0.0001 µM
